According to the DeepSol protein solubility set:

test: soluble on expression in E. coli; label from the status in PepcDB or PDB records

Row | Sequence | soluble on expression in E. coli
1 | MNKKHVVILGAGYAGLKTLRELQKGAKDVEITLVDRNNYHYEATDLHEVAAGTQPAEKITYNIMDVVDEKMTTFIQGTVKTIDAATQTVALEDGQTINYDYLVVSLGFESESFGIPGVQEHALQMVDVKTALNVYEHIQEQMRQYKATQNEEFLKIVVCGAGFTGIELLGSLVENKPKFAEIAGVSADQIQIYCVEAVTRLLPMFNEKLANYGVQLLKDSAIHLLLGKPIKEIKPGAVVYQDNEAGDLAELSAKTIIWTTGVSGSHVVGDSGFEARRGRVMVQPDLTDANHSNVYIIGDCSAVMDTETNRPYPTTAQIALKMGAHAAKNIQAQLKGEATKPFSFKSQGSVCSVGNTRALGIVGKTDIKGYPASFMKKIIMNKALFETGGTKEMMAKGRFDLYH | not soluble
2 | MGSDKIHHHHHHMEPDFYHGFYPPTPLKTYPEEIFYIGKCTENMQPVGLDIGTNYTKITADGKNVLLYPSIVAYGEEKDWSLKGETKSVYIGDEALSIVQSMENVEVLRPLHEGRVLHTSYLELAKYGLNKLKVKDGLIATGLPVKSSKKEREELKRELESELNSKVLIFPEPVGTMAYMGMETGVCVDIGFGTTDVLVIADMEYLKGDTMLMGVDKLYENLEVAVRNRIGISITPEEMTKLLTTEGYEIGRIRGGKKVSVSREEIMPEYEGYVKTWVERIASRVKLVLEGLSTTLVENFAITGGGSMLPGVYEMFKESFSDIGDVKRPDEPIKANSIGYYILAKSLVVEAETEQSGDAEILDADDKKKGRKGKK | not soluble
3 | MKSIPGDIPQYLLIKAQLQARIQSGALKSGDKLPSERELCAIFNTTRITIRESLAQLESSGLIWRADRRGWFVTPERLWLDPTQNTNFHKLCREQGREPKTALLSGVLTTVPVEVMEPLQLQPFDQIYLLTRLRYADGRAVCYCENHCLPARVPELLQYDLNGSLTEVYESHYNLVYTSMHLSFYPTAMPAQAAQALGVMEGRPALLLRRLNYDQHGRVLDLDIEYWRHDSLRIEVDTH | not soluble
4 | MGSDKIHHHHHHMRGDMLKRELQAYAKEIGIDEFRVTTADPFLVMKQRLMEQQEKGYASGFEEPDLERRTTPALLLEDAVSIIAIAVAYPSKLKDAPRGKEGERRGIFGRSSWGLDYHQALKQRLTLLEEKIQELSPGARSRSMVDTGELVDRAVAERAGIGFSGKNCSIISEEHGSYLYLGELITDQYLPPDESVEELCGSCNKCLDACPTDALIEPGVIDAKRCISFITQTKTLIPEHFRYALGNRLYGCDTCQQVCPYNRKKNATQHSELQPDPEQVKPLLIPLLSLSNREFKSRFGSLSGAWRGKKPIQRNAVCALVHYQDRTALDALRLMAETDQREDMRALAIWAVGRIAGQEAEDYIQKRLLTDSAEDVQVEGNRLLEEWGNGHAI | not soluble
5 | MRTVIFDLDGTLADTSGDLLAAANHCFRDMGLGDVLVPGQDAGIALRGGRMMLTRGLERVGAYDAATVERYYPVLLEAYRGAIDHHSFLYPGAMDAVEELRRAGYGVGICTNKPEALADLLLQRLGVRDAFAALIGADTLPVRKPDPEPLRAAARAAGGDPAACVLVGDSDTDRNTARAAGVPSILVTFGPSGDDMAALEPEALLERFEDLPHVVTRLIG | not soluble
6 | MAHHHHHHSGTVTDDYLANNVDYASGFKGPLPMPPSKHIAIVACMDARLDVYRMLGIKEGEAHVIRNAGCVVTDDVIRSLAISQRLLGTREIILLHHTDCGMLTFTDDDFKRAIQDETGIRPTWSPESYPDAVEDVRQSLRRIEVNPFVTKHTSLRGFVFDVATGKLNEVTP | soluble
7 | MKRFAFFDVDDTLITVKSMFDFFRYWTLEWRRESAALEAFEREFSQLRAAGESRENLNRAYYRYFAGIRSEDIERAGAAWASAWLAHPERFFIAAPVHLLRELSADGVEPVFVSGSFDAVLRPIADHLSVTNILAAPLELRADGCYTGRIGTPQTIGAGKAVAIRNFLSEQKVRADVCLAVGDDISDLPMLQSVGTAVVVGEHPQLTEIADARSWRRLPAMAE | not soluble
8 | GERLSEAEVLSLFDLPLPELAAAAHEVRLKKTDPEVVTFLIDRNINYTNVCTVACAFCAFYRTKRQKDAYTLSYEEIARKVEELYQVGGRRILMQGGVNPELPLVWYLDLLRYLKSRFPDLRIDAFSPEEILGLERLTGLRAEAILEKLKEAGLDGLPGAGAEILVDEVRLKAAPARIRTADWYRIVDAAQALGLYTLATMVIGFGEGPKERTAHLLGLRAQQDRALERYENGFAAFALWTLQVEHTRLKGKAPGATAHEYLKTLAVARLALDNFAHFQASWPTLGFKVAQAALYYGADDFGSTMLEENVVSAAGGHGRTHATVRQIVRHIVDAGFKPAER | not soluble
9 | MAIEHFSTLKQHLSSQIIGQEALVENLLIALLANGHLIVEGPPGLAKTRAVNALAQGLEADFHRIQFTPDLLPADLTGTDIYRPEDGTFVFQPGPLFQNLVLADEINRAPAKVQSALLEAMAEGQITVGRKTYDLPELFLVMATQNPIEQEGTYPLPEAQLDRFLMHIEIGYPDAESELAILKLNRGEALRSNANHGNDSSEKETSTKENSLRTLSQSEIFSAREQVLNIHMAPSLENYIVDLIIATRQPEKYDDKLSTWLAFGASPRATIALDRCARARAWLHNRDFVSPEDIQAVFHNALRHRILLSYQAEAEGITANQVLDYILTQVAVALEHHHHHH | soluble
10 | MGSDKIHHHHHHMQLTVWTYEGPPHVGAMRVATGMEGLHYVLHAPQGDTYADLLFTMIERRDRRPPVTYTTFAARDLGKDTAELFKTAAQNAYDRFKPQAMIVGASCTGSLIQDDPGGLAKALALPIPVVAIDLPAYQRKENWGAAETFYQLVRAIAGPKAPPPGSKRPERPAGKRPSCNLLGPTALGFRHRDDIIELTTLLGKLGIDVNVTAPMGATPADLARLGEADFNVVMYPETASQAASWLHRMFHQPFTKIVPIGVSATREFIEEVAKLADVDPTAVLKSYSSRLPWYSHSVDSTYLTGKRVFIFGDATHVVAAARMASDEMGFKVVGLGTYSREFGREIREAAKLYDVEPLITDDYLEVEAKVAELHPELVLGTQMERHIAKRLGVPCAVISAPVHVQDFPARYAPQMGFEGANVIFDTWVHPLMMGLEEHLLTMFRDDFEFKDGATPSHLGVGHAPAPAPAVADSAAVEVLDATTATTTETTTAVWAADAEKELRKIPFFVRGKARRNTERFANENGVATITVETLYDAKAHFSR | not soluble
11 | MTTDQSKLEAINQALRAQRQLVRQLDDQQASLERQLQGLTGDSAGWAADTDPALGHVLEAFHALLGSLTESLSQGDAAQLLARCAAELLPDTTGAIFVDQAGVEPANRAIAAWRGAELLTDPNALHYECTEDQAAHRLNIEAQGLYLGVVELRPLSPGRALRAREQQTLQMLASAAGLALATHTLRYRLRHRNVRDPLTGLFNRRYAEDTLERELHRAQRHQLPLSVVLIDLDRFEAYNQRHGQNAGDRMLQAMSDLLQHSFRGSDICARAAGQRFLLVLPEAAIRDAIERANDLRRELAKVRVHLRGLHLPAMTVSMGVAGYPEHADSSDDLMAAADAALQLAKHSGGNTCALAEKVPLSPHNE | soluble
12 | GPGSMPVEQLEEENKTLRTKVRVLEEELKHRNAECVRLRDELQLLSGVMRENDSQRQLIDTLREELEFSRKSHAEAVEALNVGEKQRRNEEHRQRMARVQLQLSTSGMDVKTGTSSQAGGAVLPVVTGGVVPTSSGVEIICKSSNISSLGFAPVQRPPDFAGSAYGQFYRGVANSADLVEEEDEVSRLMAMAKDGAMLDIKHAEVTDGEENELLERYKALKLWKPN | not soluble
13 | MDFLSREGSPISAELWEKIDEAVVSAAKKILTGRRFISIYGPLGAGIQAINVDNISELDETEENISVIRGRTYRHIPLINEDFSLLWRDLEFSEQMGLPVDLSSASRAATQCALREDKLIFYGNDELGYKGLLTEDGIVKFPISNWSEGENPFKDISIGLAKFIENGIVGRKALVVSPNLFVQLQRIQPGTGTTEYDRINKLLDGNIFSTPVLKDDKAVLVCSEPQNIDLVIGQDMITSYLETKNLNHYFRIMETILLRIKNKKAVIVFD | not soluble
14 | MFEELKTFVAVVEYKNFTKAGEYLNLSQPSVSKHIKNLENYFKVVLINRSIKQKTIFITESGQILYKRAKEILNLLNITYHDVSQVSDAITGHLKIGASLTIGEYILPNFLALFSKKYPDIDVEVFIKNTSIVSSHVKDYILDIGLIEGTCSSPSFIQEYFFEDKMVLALPYKSHLLKDFSFDKLQNQKWIVREDGSGTRDYLDMFLSVKEIIPKSMMVFGSNYAVKESVRNNLGITIVSNLVTSLPVLNNELSVIELGSSYNRHFSYIFPKDITLSKAATIFIEELKIFSNLNSI | not soluble
15 | MQETRLMENEYSVNLPTKFWYRGKTYNGFINLVNIFRATMILGTPGSGKSYAIVNQFIKQTIEKSYALYIYDFKFDDLSVIAYNHLLKYRYRYKVPPKFYVINFDNPRKSHRCNPLAPELMTDISDAYESSYTIMLNLNKSWVQKQGDFFVESPIVLFTAIIWFLKIYEGGKFCTFPHAIELLNKRYEDVFTILTSYPDLENYLSPFIDAWKGGASEQLQGQIASAKIPLSRLISPQLYWVMSGSDFTLDINNPKEPKVLCVGNNPDRISIYGAALGLYNSRIVKLINKKKQLKSCVIIDELPTIFFKGLDNLIATARSNKVAVVLGFQDFSQLKRDYGDKEAAVIMSTVGNVFSGQVVGETAKTLSERFGKILQKRESMSINRNDTSTSINTQLDSLIPASKISTLSQGMFVGAVADNFGETIEQKIFHAQIVVDNEAVQKETAAYQPIPEISSFLDENGNDTMEQQIQANYRQIKQDIVELVENELIRIENDPELKYLLNNEM | not soluble
16 | GPGSMYARYRTRSRFYKRPEKMLKAYNVSPNLLRLPKVKPGLLKGIYTDEKIDLRDRERLELVESIRHPKERDFYQDHTYHNQWIARDLESHQKIQIAGRYPYFSPDYEIKPWIWYPGDTVEVVSGEGAGQRGAIIAVVKYKNEILVQNVNVQDVVIPASETRPEQVVQREHPISVLRVRHVDPSTNQLCHLEIVKVRNKETGELEERRISLESGALLPIPAPEETVEAGDPLKDTAIQDADEETYDREKEMPLLVVRRLQAMENYFVDSLQKSHEYHKALQMRNAQDMQTFQKDVLVRATEKLAAAAAVFGHGAMAEAGSQAASVASESSQAGDAEEDAVKGTITVETVVAEVLKSEQRFRSDAAAPGVPGWWQNMIDAYVSVLEEEEATIEAEAAAQAQAAEADRRAEQLMADATAEVGQSMEEDGTMEGGDEDLDEQDGDLDEDSSRSDRSK | not soluble
17 | MLPRTMAADEGHVPGRFDAVIVGGGHNGLVAAAYLARAGRSVLVLERLGNTGGAAVSTRPFAGVDARLSRYSYLVSLLPRKIVRDLGLDFRVRGRTVSSYTPAERHGRPTGLLVGGGERRTREAFGRLTGSAREYESWQRFYGMTGRVARQVFPTLTEPLPSRDELRRRVDDEDAWRVLFEEPIGAAIEENFTDDLVRGVVLTDALIGTFADAHDPSLRQNRCFLYHIIGGGTGAWDVPVGGMGALTDALAAAARDAGAVLATGHEAVRIETDGRSAEVTYRDADGEGTVSARHVLVNAAPQELARLTGDSPPVPAEGAQLKVNMLLKRLPALRDTAVDPREAFAGTFHIAEGYEQLAAAHAQAAAGSLPEAPPSEIYCHSLTDPTILGPDLVEQGYQTLTLFGLHTPARLFERDNEGVREELLKSTLAQLDAHLAEPLVDCLATDAEGRPCIEAKSPLDLERDLRLPGGNIFHRDLAFPYAQEGTGRWGVETAHANVLLCGAGAVRGGGVSGVPGHNAAMAALEDVGERALGLEHHHHHH | not soluble
18 | MGSDKIHHHHHHRNGKTYTQPLTGQATDKIGEQIRELFNIDINPNGPAVKANNYVSTYMKRLYKQLENYEHGENHNEEEVNAWLSADRIVSHMAQEVSHRLDDGSYSIRFAKEHVPAKEGQSIVRAQLRIHIQGIVSPVFFYIEDTNLPGDTVLVSSDDPTVVTDVTTMVDRWSHLQLSTLPIVTARASTNDELKIEAFLVIALKDEDAGPPKKRSR | not soluble
